Target: T1, TtHisRS (histidyl-tRNA synthetase) (Thermus thermophilus HB27 (ATCC …, UniProt P62374 1-421))
T1 sequence: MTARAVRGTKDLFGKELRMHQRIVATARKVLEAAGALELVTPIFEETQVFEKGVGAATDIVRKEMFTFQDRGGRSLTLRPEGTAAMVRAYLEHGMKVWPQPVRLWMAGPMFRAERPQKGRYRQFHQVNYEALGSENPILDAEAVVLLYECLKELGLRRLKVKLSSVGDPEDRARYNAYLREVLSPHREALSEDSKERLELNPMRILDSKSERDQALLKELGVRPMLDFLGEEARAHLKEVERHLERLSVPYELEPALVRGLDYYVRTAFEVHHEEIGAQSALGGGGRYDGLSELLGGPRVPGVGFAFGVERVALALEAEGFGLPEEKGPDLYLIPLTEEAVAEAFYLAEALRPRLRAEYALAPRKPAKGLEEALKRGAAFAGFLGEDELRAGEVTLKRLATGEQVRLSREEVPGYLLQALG
Test: X-ray crystallography

B1: tRNAHis(GUG) transcript (TttRNAHis) (structured_RNA)
RNA: GGUGAGCGUAGCUCAGCUGGUAGACCACCGGACUGAGAUCCGGGGGUCGUGGGUUCAAGUCCCAUCGCUCACCCCA
binding result: binds

Source: paper PMC4357726
